The text below walks through data of publication PMC12065904, “Mapping the interaction surface between CaVβ and actin and its role in calcium channel clearance” (Nature Communications, 2025).

The target in this test is rabbit skeletal muscle actin, polymerized in vitro (F-actin) (rabbit, UniProt P68135 1-377). In words: co-sedimentation; F-actin cosedimentation: CaVβ proteins incubated with polymerized actin in polymerization buffer (0.2 mM CaCl2, 50 mM KCl, 2 mM MgCl2, 1 mM ATP, 5 mM HEPES pH 8.0), 25 µM phalloidin; 150,000 × g, 20 min, 4 °C; densitometry of pellet over total; also at 30–150 mM NaCl and after 30 or 90 min of incubation. The note with it: both partners purified.

B1: CaVβ2-core WT (core region of rat CaVβ2, residues 23–422) (domain or fragment)
chain: not shown
notes: rat CaVβ2 (voltage-gated calcium channel β2 subunit), UniProtKB Q8VGC3-2, core region (SH3 and GK domains), residues 23–422; Expressed from pRSETB
Regarding B1, the bound fraction worked out at 0.24 ± 0.03 fraction.
